This assay deals with catalytic p110γ subunit of class IB phosphoinositide 3-kinase (PI3Kγ) (human, UniProt P48736 1-1102). In words: AUC.

Usually Kd stands for the free concentration of one partner at which half of the binding sites on the other are occupied at equilibrium, for simple one-to-one binding.

catalytic p110γ subunit of class IB phosphoinositide 3-kinase (PI3Kγ), sequence (P48736 whole entry): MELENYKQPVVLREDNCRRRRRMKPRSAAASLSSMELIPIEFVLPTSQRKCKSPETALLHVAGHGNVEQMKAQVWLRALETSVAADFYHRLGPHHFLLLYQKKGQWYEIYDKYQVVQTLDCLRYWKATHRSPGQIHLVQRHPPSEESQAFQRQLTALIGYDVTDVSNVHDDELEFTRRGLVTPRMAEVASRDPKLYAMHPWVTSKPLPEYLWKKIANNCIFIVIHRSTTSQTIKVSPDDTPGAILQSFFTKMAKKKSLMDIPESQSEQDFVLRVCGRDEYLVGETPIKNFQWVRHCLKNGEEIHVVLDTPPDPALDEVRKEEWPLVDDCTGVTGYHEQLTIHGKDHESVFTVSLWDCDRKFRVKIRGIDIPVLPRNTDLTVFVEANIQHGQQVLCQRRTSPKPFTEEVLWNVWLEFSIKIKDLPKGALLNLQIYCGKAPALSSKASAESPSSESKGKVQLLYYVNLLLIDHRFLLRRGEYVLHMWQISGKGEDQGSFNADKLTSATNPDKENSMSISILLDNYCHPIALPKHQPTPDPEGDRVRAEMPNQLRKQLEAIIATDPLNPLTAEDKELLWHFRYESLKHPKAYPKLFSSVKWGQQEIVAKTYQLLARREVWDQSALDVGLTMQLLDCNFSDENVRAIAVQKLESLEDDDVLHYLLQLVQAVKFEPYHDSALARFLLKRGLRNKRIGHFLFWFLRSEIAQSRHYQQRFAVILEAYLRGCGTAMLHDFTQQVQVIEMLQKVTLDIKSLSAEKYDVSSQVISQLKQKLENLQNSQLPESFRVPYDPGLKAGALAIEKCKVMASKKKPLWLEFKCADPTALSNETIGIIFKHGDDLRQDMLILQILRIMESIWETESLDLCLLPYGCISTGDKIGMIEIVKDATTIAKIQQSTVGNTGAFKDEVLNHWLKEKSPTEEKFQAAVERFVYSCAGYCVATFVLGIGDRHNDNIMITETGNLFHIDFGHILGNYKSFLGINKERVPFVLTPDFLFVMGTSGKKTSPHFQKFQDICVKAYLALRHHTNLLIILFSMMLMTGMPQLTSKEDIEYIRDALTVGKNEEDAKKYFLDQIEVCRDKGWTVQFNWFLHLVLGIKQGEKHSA

B1: p101 non-catalytic subunit of PI3Kγ (natural protein, UniProt Q8WYR1 1-880, looked up)
chain: MQPGATTCTEDRIQHALERCLHGLSLSRRSTSWSAGLCLNCWSLQELVSRDPGHFLILLEQILQKTREVQEKGTYDLLTPLALLFYSTVLCTPHFPPDSDLLLKAASTYHRFLTWPVPYCSICQELLTFIDAELKAPGISYQRLVRAEQGLPIRSHRSSTVTVLLLNPVEVQAEFLAVANKLSTPGHSPHSAYTTLLLHAFQATFGAHCDVPGLHCRLQAKTLAELEDIFTETAEAQELASGIGDAAEARRWLRTKLQAVGEKAGFPGVLDTAKPGKLHTIPIPVARCYTYSWSQDSFDILQEILLKEQELLQPGILGDDEEEEEEEEEVEEDLETDGHCAERDSLLSTSSLASHDSTLSLASSQASGPALSRHLLTSFVSGLSDGMDSGYVEDSEESSSEWPWRRGSQERRGHRRPGQKFIRIYKLFKSTSQLVLRRDSRSLEGSSDTALPLRRAGSLCSPLDEPVSPPSRAQRSRSLPQPKLGTQLPSWLLAPASRPQRRRPFLSGDEDPKASTLRVVVFGSDRISGKVARAYSNLRRLENNRPLLTRFFKLQFFYVPVKRSHGTSPGACPPPRSQTPSPPTDSPRHASPGELGTTPWEESTNDISHYLGMLDPWYERNVLGLMHLPPEVLCQQSLKAEAQALEGSPTQLPILADMLLYYCRFAARPVLLQVYQTELTFITGEKTTEIFIHSLELGHSAATRAIKASGPGSKRLGIDGDREAVPLTLQIIYSKGAISGRSRWSNLEKVCTSVNLNKACRKQEELDSSMEALTLNLTEVVKRQNSKSKKGFNQISTSQIKVDKVQIIGSNSCPFAVCLDQDERKILQSVVRCEVSPCYKPEKSDLSSPPQTPPDLPAQAAPDLCSLLCLPIMTFSGALP
For the molecule B1, the Kd was at most 100 nM.

B2: p87 non-catalytic subunit of PI3Kγ (natural protein, UniProt Q5UE93 1-754, looked up)
chain: MESSDVELDLQRSVQAVLRELSTQAPALQSNQGMWRWSLHKKVERDPGKSPVLVRILLRELEKAESQDLRHVIIPLLHTVMYVLTKATGITEELYQRIYAFCTRLLTLPTPYCTVALDCAIRLKTEMAVPGTLYQRMVIAEQNLTNELYPYQERVFLFVDPELVSASVCSALLLEIEAAQAQQTPETCMRHVVSHALQAALGEACHAGALHRKLQASPRRTLEHYFHAVVAALEQMASEASPSREGHVERLEEIYCSLLGPAAGRCGGDLVQERPPSIPLPSPYITFHLWTGEEQLWKELVLFLRPRSQLRLSADLEVLDLQGLRPDRELARVSVLSTDSGIERDLPTGADELPAPGSPEMERAGLQRKGGIKKRAWPLDFLMPGSWDGPPGLHRRTGRPSGDGEMLPGVSRLHTARVLVLGDDRMLGRLAQAYHRLRKRETQKFCLTPRLSLQLYYIPVLAPEKPAASRQPELGELATFLGRVDPWYQSNVNTLCPAIHKLAEMPPSLDTSRTVDPFILDVITYYIRMGTQPIYFQIYTVKIFFSDLSQDPTEDIFLIELKVKIQDSKFPKDGFSPRRRGVAEGPGAELSLCYQKALLSHRPREVTVSLRATGLILKAIPASDTEVSGSSHCPLPAAPVTDHTCLNVNVTEVVKSSNLAGKSFSTVTNTFRTNNIQIQSRDQRLLTLSLDKDDQRTFRDVVRFEVAPCPEPCSGAQKSKAPWLNLHGQQEVEAIKAKPKPLLMPINTFSGIVQ
B2 had an equilibrium dissociation constant (Kd) of at most 200 nM.

These data come from PMC4655608 (The Biochemical journal, 2015).
